Experimental data from US10933119B2, “Aortopathy” (University of Leicester, priority 2015, dated 2021).

What was measured:
[1] = test system: leukocytes in peripheral blood; assay: Number of leukocytes in peripheral blood after GM-CSF administration; assay type: in vivo, mice; parameters: Lymphocytes in peripheral blood: unit not given here; settings: for Lymphocytes in peripheral blood / Monocytes in peripheral blood / Neutrophils in peripheral blood: wild type mice
Procedure: (§1) To induce aortic dissection/intramural hematoma, peri-aortic application of CaCl2 was done to the abdominal aorta, followed by two-week infusion of AngII (2000 ng kg−1 min−1) (40). In detail, mice were anesthetized and underwent laparotomy at 10- to 13-weeks of age. The abdominal aorta between the renal arteries and bifurcation of the iliac arteries was isolated from the surrounding retroperitoneal structure, and 0.5 M CaCl2 was applied to the external surface of the infrarenal aorta. NaCl (0.9%) was substituted for CaCl2 in sham control mice. The aorta was rinsed with 0.9% sterile saline after 15 min and the incision was closed.
(§2) Wild-type mice were injected intraperitoneally with 110 mg kg−1 of clodronate liposomes or equal volume of PBS liposomes 2 days prior and 7 days after induction of aortic dissection. Neutralizing antibody against GM-CSF (300 μg, R&D systems) or control anti-rat IgG antibody (Equitech Bio) was administered every other day by intraperitoneal injection. Recombinant murine GM-CSF (10, 50, 100 μg kg−1 day−1, PeproTech) was administered for two weeks or four weeks after induction of aortic dissection.
(§3) Aortas were minced into 3- to 4-mm pieces and placed in 1 ml digestion solution containing collagenase type II (1.25 mg ml−1, Worthington) and porcine pancreatic elastase (50 μg ml−1, Worthington) in base solution of Accumax (Innovative Cell Technologies). Aortic tissue was digested at room temperature with agitation for 1 h. After digestion, cells were washed in FACS buffer (5% FCS in PBS) at 2000 rpm for 5 min. Aortic macrophages were isolated using CD11b microbeads according to the manufacturer's instructions (Miltenyi Biotec). Spleen was homogenized and passed through a cell strainer to obtain single-cell suspensions. Bone marrow-derived cells were taken from the femur and tibia of 5- to 6-week-old mice. Blood was collected in heparin-coated vials and then 1.2% dextran was added for 45 min at room temperature. Counting of peripheral leukocytes was done by automated hematology analyzer (XT-2000i, Sysmex). Neutrophils were isolated from bone marrow using a neurophil isolation kit according to the manufacturer's instructions (Miltenyi Biotec). From single-cell suspensions of spleen, bone marrow and blood, erythrocytes were lysed using ACK lysis buffer for 5, 3 and 2 min on ice, respectively. Cells were centrifuged at 2000 rpm for 5 min to remove the ACK lysis buffer, then the single-cell suspensions were resuspended and washed in FACS buffer, followed by centrifugation at 2000 rpm for 5 min.

[2] = test system: leukocytes in peripheral blood; assay: Number of leukocytes in peripheral blood after GM-CSF blockade by neutralizing antibody; assay type: in vivo; parameters: Lymphocytes in peripheral blood: unit not given here; settings: KLF6fl/fl;LysM Cre mice, CaCl2 + AngII
Procedure: as §1, §2
as §3, with “Neutrophils were isolated from bone marrow using a neurophil isolation kit according to the manufacturer's instructions (Miltenyi Biotec). From single-cell suspensions of spleen, bone marrow and blood, erythrocytes were lysed using ACK lysis buffer for 5, 3 and 2 min on ice, respectively. Cells were centrifuged at 2000 rpm for 5 min to remove the ACK lysis buffer, then the single-cell suspensions were resuspended and washed in FACS buffer, followed by centrifugation at 2000 rpm for 5 min.” left out

[3] = test system: wild-type mice; assay: Murine aortic dissection/intramural hematoma model with recombinant GM-CSF administration; assay type: in vivo
Procedure: as §1, §2
Aortas from mice were embedded in paraffin then 5-μm-thick serial sections were prepared for Elastic Von Gienson (EVG) and hematoxylin/eosin (HE) staining. Digital images of EVG-stained aortas with reference scale were used for absolute measurement of diameter. Human aortic tissue was obtained from patients undergoing surgical aortic repair with informed consent under a protocol approved by the University of Tokyo hospital research ethics committee. Paraffin-embedded sections were taken from the aorta for EVG staining and immunohistochemistry. […]

[4] = Plasma GM-CSF concentration (ELISA) after recombinant GM-CSF infusion; assay type: in vivo; settings: wild-type mice
Procedure: as §2
Plasma levels of IL-6, MCP-1 and GM-CSF in mice or in humans with or without aortic dissection/intramural hematoma were assayed with commercially available quantikine ELISA kits (R&D systems) according to the manufacturer's instructions. Sera of healthy volunteers and of patients with aortic aneurysm, coronary artery disease or with aortic dissection were obtained with informed consent under a protocol approved by the University of Tokyo hospital research ethics committee.

B1: GM-CSF: Recombinant murine GM-CSF (PeproTech), granulocyte macrophage colony-stimulating factor (protein, UniProt P01587 18-141, looked up)
Granulocyte-macrophage …: APTRSPITVTRPWKHVEAIKEALNLLDDMPVTLNEEVEVVSNEFSFKKLTCVQTRLKIFEQGLRGNFTKLKGALNMTASYYQTYCPPTPETDCETQVTTYADFIDSLKTFLTDIPFECKKPGQK
[1]; 14 days of GM-CSF administration
  number of neutrophils in peripheral blood: no difference
[1]; GM-CSF administration, early phase
  number of neutrophils in peripheral blood: markedly increased
[1]; GM-CSF administration, early phase (5 days) or developed phase (14 days)
  number of circulating lymphocytes: did not change
[1]; CaCl2 + AngII, 5 days
  Lymphocytes in peripheral blood: 1803.3 ± 124.0
  Monocytes in peripheral blood: 387 ± 112 cells/µL
  Neutrophils in peripheral blood: 1690 ± 147 cells/µL
[1]; CaCl2 + AngII, 14 days
  Lymphocytes in peripheral blood: 1667.2 ± 371.3
  Monocytes in peripheral blood: 310 ± 45.9 cells/µL
  Neutrophils in peripheral blood: 1050 ± 259 cells/µL
[1]; Sham, 5 days
  Lymphocytes in peripheral blood: 3150.0 ± 234.5
  Monocytes in peripheral blood: 353 ± 103 cells/µL
  Neutrophils in peripheral blood: 2540 ± 454 cells/µL
[1]; Sham, 14 days
  Lymphocytes in peripheral blood: 3052.0 ± 420.3
  Monocytes in peripheral blood: 295 ± 66.2 cells/µL
  Neutrophils in peripheral blood: 976 ± 117 cells/µL
[2]
  Lymphocytes in peripheral blood: 1843.3 ± 311.1
  Monocytes in peripheral blood: 82.5 ± 12.5 cells/µL
  Neutrophils in peripheral blood: 786 ± 118 cells/µL
[3]; wild-type mice subjected to aortic inflammation (CaCl2+AngII) plus GM-CSF
  aortic dissection/intramural hematoma: caused
[3]; wild-type mice, GM-CSF with CaCl2+AngII
  death of mice: died from aortic rupture
[3]; wild-type mice, administration of GM-CSF alone
  aortic dissection/intramural hematoma: did not develop
[4]; GM-CSF alone, 2 weeks infusion
  increased circulating levels of GM-CSF: at least 180.9 fold
[4]; combination of GM-CSF with CaCl2 + AngII compared to each alone
  circulating levels of GM-CSF: markedly elevated
